The text below walks through data of publication PMC13156308, “Proximal proteomics analysis reveals DNA polymerase δ subunit 3 is a new MCM2 binding partner and promotes parental histones inheritance in mammalian cells” (Cell Death and Differentiation, 2025).

The experiment addresses T1, GST-tagged MCM2 (human, UniProt P49736 1-904).
T1 construct: MCM2, amplified from cDNA of human MCF-7 cells, in pGEX-C5X; called MCM2-His in the three-protein pull-down; also called GST-MCM2; MCM2-His; source: E. coli BL21, purified (Ni-NTA); not shown: GST, N-terminal, kept; His tag, C-terminal, kept
Nature of the experiment: BLI; MCM2 immobilised on Anti-GST biosensors, BLItz, 1x PBS and 0.02% Tween; analyte 0-50.0 nM. The note with it: both partners purified.

T1 sequence (P49736 whole entry): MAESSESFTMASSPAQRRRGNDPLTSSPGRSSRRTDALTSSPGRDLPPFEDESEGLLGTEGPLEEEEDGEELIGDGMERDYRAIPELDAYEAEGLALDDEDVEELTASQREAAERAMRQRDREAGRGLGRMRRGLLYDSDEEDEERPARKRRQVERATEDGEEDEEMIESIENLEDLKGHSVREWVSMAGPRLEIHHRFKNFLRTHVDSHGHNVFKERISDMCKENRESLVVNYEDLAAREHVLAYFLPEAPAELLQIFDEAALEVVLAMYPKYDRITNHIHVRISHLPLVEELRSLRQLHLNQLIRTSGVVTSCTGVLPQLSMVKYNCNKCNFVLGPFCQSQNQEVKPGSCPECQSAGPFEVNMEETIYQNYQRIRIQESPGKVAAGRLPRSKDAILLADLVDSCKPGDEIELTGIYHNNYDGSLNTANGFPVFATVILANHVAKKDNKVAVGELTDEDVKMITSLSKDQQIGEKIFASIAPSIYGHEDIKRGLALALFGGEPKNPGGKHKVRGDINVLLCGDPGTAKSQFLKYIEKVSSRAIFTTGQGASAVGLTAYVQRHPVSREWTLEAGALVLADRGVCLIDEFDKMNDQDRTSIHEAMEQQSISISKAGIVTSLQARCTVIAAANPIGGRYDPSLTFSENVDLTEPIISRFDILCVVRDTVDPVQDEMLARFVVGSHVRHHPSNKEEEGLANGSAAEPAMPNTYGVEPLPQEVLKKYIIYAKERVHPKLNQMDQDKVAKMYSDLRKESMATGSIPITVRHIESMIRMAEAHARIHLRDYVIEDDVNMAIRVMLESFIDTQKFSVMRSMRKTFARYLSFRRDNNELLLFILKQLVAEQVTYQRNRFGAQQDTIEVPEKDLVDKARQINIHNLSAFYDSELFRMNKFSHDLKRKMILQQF

B1: full-length strep-tagged POLD3 (natural protein, human, UniProt Q15054 1-466, looked up)
chain: MADQLYLENIDEFVTDQNKIVTYKWLSYTLGVHVNQAKQMLYDYVERKRKENSGAQLHVTYLVSGSLIQNGHSCHKVAVVREDKLEAVKSKLAVTASIHVYSIQKAMLKDSGPLFNTDYDILKSNLQNCSKFSAIQCAAAVPRAPAESSSSSKKFEQSHLHMSSETQANNELTTNGHGPPASKQVSQQPKGIMGMFASKAAAKTQETNKETKTEAKEVTNASAAGNKAPGKGNMMSNFFGKAAMNKFKVNLDSEQAVKEEKIVEQPTVSVTEPKLATPAGLKKSSKKAEPVKVLQKEKKRGKRVALSDDETKETENMRKKRRRIKLPESDSSEDEVFPDSPGAYEAESPSPPPPPSPPLEPVPKTEPEPPSVKSSSGENKRKRKRVLKSKTYLDGEGCIVTEKVYESESCTDSEEELNMKTSSVHRPPAMTVKKEPREERKGPKKGTAALGKANRQVSITGFFQRK
notes: full-length human POLD3 gene, synthesised and codon-optimised, in pET28b; also called purified POLD3; Strep II-tagged POLD3; source: E. coli BL21, purified (Ni-NTA); not shown: twin-strep, C-terminal, kept
B1: binding was characterised by a dissociation constant (Kd) of 10.2 nM.
